Assay results: patent US20260317782 (published 2026)

B1: V0009 (antibody, V domains shown)
VH: EVQLVESGGALVQPGGSLSLSCAASGFTFTDYYMSWVRQPPGKALEWLALIRNKAKGFTTEYSASVKGRFTISRDNSQSILLFQMNDLRADDSATYYCVRDINYWGQGTTLTVSS
VL: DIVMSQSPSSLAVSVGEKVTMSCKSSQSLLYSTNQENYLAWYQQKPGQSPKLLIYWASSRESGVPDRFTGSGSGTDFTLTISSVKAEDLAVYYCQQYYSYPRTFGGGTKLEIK
modifications: non-phosphorylated
B2: V0024 (antibody, V domains shown)
VH: QVQLQQPGTELVKPGASVKLSCKASGYTFTRFWMHWVKQRPGQGLEWIGNINPNNGGTDNNERFKSKATLTVDRSSSTAYMQLSSLTSEDSAVYYCARGTGTGAMDYWGQGTSVTVSS
VL: DVVMTQTPLSLPVSLGDQASISCRSSQSLVHSNGNTHLYWYLQKPGQSPKLLIYRVSSRFSGVPDRFSGSGSGTDFTLKISRVEAEDLGVYFCFQGTHVPRTFGGGTKLEIK
modifications: non-phosphorylated
B3: V0004 (antibody, V domains shown)
VH: QVQLQQPGAELVKPGASVKLSCKASDYTFTNYWMHWVKQRPGRGLEWIGRIDPNSGGTRYNEKFKNKATLTVDKPSSTAYMHLSSLTSEDSAVYYCAGDFDVWGTGTTVTVSS
VL: DIQMTQSPASLSASVGETVTITCRASGNIHNYLAWYQQRQGKSPQLLVYNAKTLPDGVPSRFSGSGSGTQYSLKINSLQPEDFGSYCCQHFWSTPLTFGAGTKLELK
modifications: non-phosphorylated

Target: wild type tau (human, UniProt P10636)
Assay: ELISA

Sequence of wild type tau (P10636 2-758): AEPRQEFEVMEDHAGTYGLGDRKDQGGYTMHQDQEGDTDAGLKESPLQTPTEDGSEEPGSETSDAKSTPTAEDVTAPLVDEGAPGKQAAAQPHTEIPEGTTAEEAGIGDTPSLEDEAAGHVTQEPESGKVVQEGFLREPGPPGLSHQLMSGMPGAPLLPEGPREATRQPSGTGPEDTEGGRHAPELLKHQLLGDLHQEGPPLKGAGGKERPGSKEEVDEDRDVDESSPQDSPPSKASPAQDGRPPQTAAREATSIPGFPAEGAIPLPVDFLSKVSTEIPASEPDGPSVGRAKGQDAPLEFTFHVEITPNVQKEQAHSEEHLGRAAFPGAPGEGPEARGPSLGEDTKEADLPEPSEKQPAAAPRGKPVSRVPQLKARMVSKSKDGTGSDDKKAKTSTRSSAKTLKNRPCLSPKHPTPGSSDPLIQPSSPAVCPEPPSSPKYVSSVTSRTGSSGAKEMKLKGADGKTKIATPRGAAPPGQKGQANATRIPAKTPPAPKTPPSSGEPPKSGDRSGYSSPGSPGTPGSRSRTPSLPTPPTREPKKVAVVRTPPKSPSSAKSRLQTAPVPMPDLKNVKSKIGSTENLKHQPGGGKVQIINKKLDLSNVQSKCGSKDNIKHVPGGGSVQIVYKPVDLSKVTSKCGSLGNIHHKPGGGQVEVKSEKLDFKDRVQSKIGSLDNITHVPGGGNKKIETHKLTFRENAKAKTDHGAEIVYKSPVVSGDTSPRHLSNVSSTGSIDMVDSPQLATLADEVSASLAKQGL

Binding result, no binding:
B1, B2, B3
